Laboratory results taken from patent publication US20230331848A1 (BIOSION, published 2023).
Positions count from the first letter of the chain named. Each block holds one binder with its values, some of them ahead of it.

Key:
[1] = biological target: T1, human PD-1 expressed on GS-J2/PD-1 cells (Genscript) (human, UniProt Q15116 25-288); assay: cell-based or functional assay
[2] = biological target: T1, human PD-1 expressed on GS-J2/PD-1 …; assay: cell-based binding FACS on GS-J2/PD-1 cells expressing human PD-1 (MFI); unit from the axis 'Con of mAb, nM.'
[3] = biological target: T2, cynomolgus PD-1-his protein (Cat#:PD1-05223, Acro biosystems Inc.) (cynomolgus, UniProt B0LAJ3 25-170); assay: indirect ELISA on coated cynomolgus PD-1-his
T2 construct: Bought protein used in Biacore and indirect ELISA; also called monkey PD-1; Cyno PD-1

[4] = biological target: T3, human PD-1-his protein prepared in-house (human, UniProt Q15116 25-167, biotin-labeled (sites not given)); assay: capture ELISA, antibody captured, biotin human PD-1-his detected
T3 construct: also called biotin labeled human PD-1-his
Procedure: Briefly, 96-well micro plates were coated with 100 μl 2 μg/ml AffiniPure Goat Anti-Mouse IgG F(ab′)₂ fragment specific (Cat#:115-005-072, Jackson lmmunoResearch) or Goat-anti-human IgG (Cat#:109-005-097, Jackson ImmunoResearch, for the positive control and negative control) in PBS overnight at 4° C. Plates were washed once with wash buffer (PBST, PBS+0.05% Tween-20) and then blocked with 200 μl/well blocking buffer (5% w/v non-fatty milk in PBST) for 2 hours at 37° C. […] After a final wash, plates were incubated with 100 μl/well TMB (Cat#:TMB-S-002, Innoreagents) at room temperature.
For the capture ELISA, 96-well plates were coated with 100 μl 2 μg/ml AffiniPure Goat Anti-Human IgG, Fcγ fragment specific (Cat#:109-005-098, Jackson Immunoresearch) instead of AffiniPure goat-anti-mouse IgG F(ab′)₂ fragment specific.

[5] = biological target: T1, human PD-1 expressed on GS-J2/PD-1 …; assay: flow cytometry on GS-J2/PD-1 cells
Procedure: In specific, the 293F-mouse PD-1 cells and GS-J2/PD-1 cells were respectively harvested from cell culture flasks, washed twice and re-suspended in PBS containing 2% v/v Fetal Bovine Serum (FACS buffer). Then, 2×10⁵ cells per well were incubated in 96 well-plates with 100 μl of the anti-PD1 antibodies or controls at various concentrations for 40 minutes on ice. […] Following an incubation of 40 minutes at 4° C. in dark, cells were washed three times and re-suspended in FACS buffer. Fluorescence was measured using a Becton Dickinson FACS Canto II-HTS equipment and plotted against antibody concentrations. Data was analyzed using GraphPad Prism software and EC₅₀ values were reported.
For the cell-based binding FACS, R-Phycoerythrin AffiniPure Goat Anti-human IgG Fcγ fragment specific (Cat#:109-115-098, Jackson ImmunoResearch) was used for the humanized antibodies, with 1:1000 dilution in FACS buffer, 100 μl/well.

[6] = biological target: T4, human PD-1-his protein (Cat#:PD1-H5221, Acro biosystems Inc.) (human, UniProt Q15116 25-167); assay: BLI (Octet RED96), supernatant antibody captured on AHC sensor, human PD-1-his in solution, 1:1 fit
T4 construct: not shown: his tag
Procedure: Briefly, AHC biosensors (anti-human IgG Fe capture, from ForteBio) were presoaked with 10 mM glycine (pH 1.5) for 3 seconds, and then dipped in a well with running buffer (0.5% w/v BSA in PBST) for 3 seconds, the soaking and dipping steps were repeated for three times. […] A new baseline was run for 100 seconds in another well with running buffer. Then the sensors were dipped in a well with serially diluted human PD-1-his protein (Cat#:PD1-H5221, Acro biosystems Inc., starting at 100 nM with a two-fold serial dilution) in running buffer for 120 seconds, and then immersed in a baseline well for […]. Finally, sensors were presoaked with 10 mM glycine (pH 1.5) for 30 seconds, and then were dipped in a well with running buffer for 30 seconds. The association and dissociation curves were fit to a 1:1 Langmuir binding model using ForteBio Data Analysis 8.1 evaluation software.

[7] = biological target: T3, human PD-1-his protein prepared in-house; assay: competitive ELISA: biotin human PD-1-his + antibody on coated Pembrolizumab (competitor)
Procedure: ELISA plates were washed once with wash buffer (PBST, PBS+0.05% Tween-20) and then blocked with 200 μl/well blocking buffer (5% w/v non-fatty milk in PBST) for 2 hours at 37° C. […] After incubation at 37° C. for 40 minutes, plates were washed using wash buffer, added and incubated with 100 μl/well Peroxidase Streptavidin for 40 minutes at 37° C. Plates were washed again using wash buffer. Finally, TMB was added and the reaction was stopped using 1M H₂SO₄. The absorbance was read on a microplate reader using dual wavelength mode with 450 nm for TMB and 630 nm as the reference wavelength, and the OD (450-630) values were plotted against antibody concentrations. Data was analyzed using Graphpad Prism software and IC₅₀ values were reported.

[8] = biological target: T5, recombinant human PD-1-his protein (Cat#:10377-H08H, Sino biological Inc.) (human, UniProt Q15116 25-167); assay: SPR (Biacore), Example 9
T5 construct: Bought protein used as analyte in the Biacore tests; not shown: his tag

[9] = biological target: T2, cynomolgus PD-1-his protein …; assay: SPR (Biacore), Example 9
[10] = biological target: T6, in house made human PD-1-Fc protein (human, biotin-labeled (sites not given)); assay: competitive ELISA: biotin human PD-1-Fc + antibody on coated human PD-L1-Fc (competitor)
T6 construct: also called biotin-labeled human PD-1-Fc
Procedure: Briefly, 100 μl human PD-L1-Fc protein (prepared in-house with SEQ ID NO: 28) at 2 μg/mL in carbonate/bicarbonate buffer (pH 9.6) was coated on 96-well micro plates overnight at 4° C., Plates were washed with wash buffer (PBS+0.05% w/v Tween-20, PBST), and blocked with 5% w/v non-fatty milk in PBST for 2 hours at 37° C. […] After incubation at 37° C. for 40 minutes, plates were washed using wash buffer. […] Plates were washed again using wash buffer. Finally, TMB was added and the reaction was stopped using 1M H₂SO₄. The absorbance was read on a microplate reader using dual wavelength mode with 450 nm for TMB and 630 nm as the reference wavelength, then the OD (450-630) values were plotted against antibody concentrations. Data was analyzed using Graphpad Prism software and IC₅₀ values were reported.

[11] = biological target: T7, recombinant mouse PD-1-his protein (Cat#:50124-M08H, Sino Biological Inc) (mouse, UniProt Q02242 25-167); assay: SPR (Biacore), Example 9
T7 construct: Bought protein used in Biacore and indirect ELISA; not shown: his tag
T7 sequence (looked up): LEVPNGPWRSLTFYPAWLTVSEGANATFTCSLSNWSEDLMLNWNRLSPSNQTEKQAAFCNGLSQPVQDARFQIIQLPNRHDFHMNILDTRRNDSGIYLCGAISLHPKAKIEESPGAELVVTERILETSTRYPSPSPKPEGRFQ

[12] = biological target: T6, in house made human PD-1-Fc protein; assay: blocking FACS: biotin human PD-1-Fc + antibody on GS-C2/PD-L1 cells (competitor: cell-surface human PD-L1)
Procedure: GS-C2/PDL1 cells were harvested from cell culture flasks at the log phase, washed twice and re-suspended in PBS containing 2% v/v Fetal Bovine Serum (FACS buffer). GS-C2/PD-L1 cells, 0.6×10⁵ cells per welt, were incubated in 96 well-plates with 100 the antibody/PD1-Fc mixture for 40 minutes at 4° C. Cells were washed twice with FACS buffer, added with 100 R-Phycoerythrin Streptavidin (1:500 dilution in FACS buffer, Cat#:016-110-084, Jackson Immunoresearch), and incubated for 40 minutes at 4° C. in dark. Cells were washed twice and re-suspended in FACS buffer. Fluorescence was measured using a Becton Dickinson FACS Canto II-HTS equipment. Data was analyzed using Graphpad Prism software and IC₅₀ values were reported.

Cell-based functional assay (EC50, nM) [1]: 5.13 nM
EC50 [2]: 461 pM
EC50 [3]: 820 pM
EC50 [4]: 210 pM
EC50 [5]: 630 pM
Kd [6]: 1130 pM
koff [6]: 0.000291 s⁻¹
kon [6]: 258000 M⁻¹ s⁻¹
IC50 [7]: 510 pM
Kd [8]: 634 pM
koff [8]: 0.000593 s⁻¹
kon [8]: 934000 M⁻¹ s⁻¹
Kd [9]: 1340 pM
koff [9]: 0.000484 s⁻¹
kon [9]: 361000 M⁻¹ s⁻¹
IC50 [10]: 330 pM
Kd [11]: 380000 pM
koff [11]: 0.0182 s⁻¹
kon [11]: 47900 M⁻¹ s⁻¹
IC50 [12]: 550 pM
B1: humanized antibody huE1A9C8A7-V8 (antibody, human IgG4 S228P, kappa, V domains shown)
VH: QVQLVQSGAEVVKPGASVKISCKASGYTFTDYVMHWVRQAPGQSLEWMGVISTYHIPAVYNQKFKGKATMTVDTSTSTVYLELSSLRSEDTAVYYCAREVYGDSYYFDVWGQGTTVTVSS
VL: DIVMTQTPLSLPVTPGEPASISCRSSQSIVHSNGNTYLEWYLQKPGQSPQLLIYKVSNRFSGVPDRFSGSGSGTDFTLKISRVEAEDVGVYYCFQGSHVPYTFGGGTKVEIKR
notes: Human IgG4/kappa

EC50 [2]: 451 pM
Kd [8]: 382 pM
koff [8]: 0.00041 s⁻¹
kon [8]: 1.07e+06 M⁻¹ s⁻¹
Kd [9]: 722 pM
koff [9]: 0.000332 s⁻¹
kon [9]: 461000 M⁻¹ s⁻¹
Kd [11]: 244000 pM
koff [11]: 0.0167 s⁻¹
kon [11]: 64800 M⁻¹ s⁻¹
B2: humanized antibody huE1A9C8A7-V8-3 (antibody, human IgG4 S228P, kappa, V domains shown)
VH: B1 VH with D103E
VL: B1 VL with N33A
notes: huE1A9C8A7-V8 modified in VH CDR3 (D to E) and VL CDR1 (N to A)
